Assay results published in the supplement of paper PMC9112550, “Optimization of the antimicrobial peptide Bac7 by deep mutational scanning” (BMC Biology, 2022).

system: Escherichia coli TOP10; assay: shrunken log2 fold change of peptide-encoding DNA abundance (4.5 h post-induction vs induction); higher = less antimicrobial activity (less host growth inhibition); details: time post-induction: 4.5 h; library: site-saturation at positions 5, 18, 19, 20
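Note: peptides expressed intracellularly from a pBAD plasmid library in pooled LB shake-flask culture, induced with 0.3% L-arabinose, DNA abundance read by NGS, three biological replicates, DESeq2 with apeglm shrinkage.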

Sequence | shrunken log2 fold change
RRIRFRPPRLPRPRPRPMDEPRP | 0.0137
RRIRCRPPRLPRPRPRPGEMPRP | 0.438
RRIRGRPPRLPRPRPRPGITPRP | 0.356
RRIRMRPPRLPRPRPRPPDLPRP | 0.129
RRIRHRPPRLPRPRPRPIRCPRP | -0.115
RRIRGRPPRLPRPRPRPIESPRP | 0.108
RRIRARPPRLPRPRPRPVQYPRP | 0.0979
RRIRPRPPRLPRPRPRPEGEPRP | 0.302
RRIRARPPRLPRPRPRPVRLPRP | 0.371
RRIRNRPPRLPRPRPRPHFAPRP | 0.0588
RRIRVRPPRLPRPRPRPRCCPRP | 0.201
RRIRTRPPRLPRPRPRPCNDPRP | -0.145
RRIRGRPPRLPRPRPRPAQRPRP | 0.858
RRIRMRPPRLPRPRPRPPCLPRP | -0.157
RRIRGRPPRLPRPRPRPGMHPRP | 0.589
RRIRSRPPRLPRPRPRPTQGPRP | 0.36
RRIRARPPRLPRPRPRPMAYPRP | 0.546
RRIRNRPPRLPRPRPRPVSGPRP | 0.172
RRIRERPPRLPRPRPRPTQQPRP | 0.0931
RRIRNRPPRLPRPRPRPETGPRP | 2.57
RRIRKRPPRLPRPRPRPMKEPRP | 0.0132
RRIRVRPPRLPRPRPRPFYTPRP | 0.508
RRIRKRPPRLPRPRPRPMTWPRP | -0.00388
RRIRLRPPRLPRPRPRPQDCPRP | 0.0274
RRIRPRPPRLPRPRPRPCLKPRP | -0.0625

Sequence | shrunken log2 fold change
RRIRFRPPRLPRPRPRPMTEPRP | -0.0907
RRIRFRPPRLPRPRPRPWVMPRP | -0.258
RRIRLRPPRLPRPRPRPRESPRP | 0.787
RRIRYRPPRLPRPRPRPPDEPRP | 0.0398
RRIRMRPPRLPRPRPRPSSMPRP | -0.0815
RRIRQRPPRLPRPRPRPLTKPRP | 0.184
RRIRCRPPRLPRPRPRPYSYPRP | -0.0951
RRIRERPPRLPRPRPRPRPWPRP | 0.298
RRIRCRPPRLPRPRPRPNSEPRP | -0.398
RRIRFRPPRLPRPRPRPFDIPRP | -0.182
RRIRKRPPRLPRPRPRPMSCPRP | 0.0384
RRIRNRPPRLPRPRPRPETNPRP | 0.196
RRIRLRPPRLPRPRPRPDAGPRP | 0.0316
RRIRTRPPRLPRPRPRPEGLPRP | 0.0624
RRIRHRPPRLPRPRPRPMYQPRP | -0.00419
RRIRWRPPRLPRPRPRPTVGPRP | 0.468
RRIRKRPPRLPRPRPRPLSGPRP | -0.0828
RRIRGRPPRLPRPRPRPYVEPRP | -0.00776
RRIRGRPPRLPRPRPRPDNPPRP | 0.0274
RRIRERPPRLPRPRPRPGGNPRP | -0.442
RRIRLRPPRLPRPRPRPMFMPRP | -0.208
RRIRRRPPRLPRPRPRPCKDPRP | -0.0845
RRIRKRPPRLPRPRPRPHNKPRP | -0.0934
RRIRGRPPRLPRPRPRPTIMPRP | 0.365
RRIRCRPPRLPRPRPRPRLFPRP | 0.437

Sequence | shrunken log2 fold change
RRIRWRPPRLPRPRPRPVQVPRP | 0.0298
RRIRNRPPRLPRPRPRPWMHPRP | -0.228
RRIRFRPPRLPRPRPRPRIFPRP | -0.102
RRIRARPPRLPRPRPRPPVKPRP | 0.404
RRIRPRPPRLPRPRPRPRVSPRP | 0.00758
RRIRYRPPRLPRPRPRPHDQPRP | -0.188
RRIRHRPPRLPRPRPRPVQHPRP | -0.0639
RRIRQRPPRLPRPRPRPMNDPRP | -0.227
RRIRVRPPRLPRPRPRPDDMPRP | -0.239
RRIRRRPPRLPRPRPRPYWDPRP | -0.247
RRIRLRPPRLPRPRPRPHYCPRP | -0.0889
RRIRSRPPRLPRPRPRPSSVPRP | -0.354
RRIRVRPPRLPRPRPRPCNKPRP | -0.311
RRIRLRPPRLPRPRPRPVVDPRP | 0.117
RRIRARPPRLPRPRPRPCQWPRP | -0.0491
RRIRRRPPRLPRPRPRPMMQPRP | 0.112
RRIRYRPPRLPRPRPRPGRSPRP | -0.184
RRIRYRPPRLPRPRPRPQACPRP | 0.00187
RRIRVRPPRLPRPRPRPFDPPRP | -0.0153
RRIRIRPPRLPRPRPRPSWWPRP | -0.059
RRIRFRPPRLPRPRPRPGKWPRP | -0.0163
RRIRSRPPRLPRPRPRPNMLPRP | -0.323
RRIRHRPPRLPRPRPRPLPWPRP | 0.108
RRIRRRPPRLPRPRPRPTKSPRP | 0.226
RRIRMRPPRLPRPRPRPCQLPRP | -0.00804

Sequence | shrunken log2 fold change
RRIRIRPPRLPRPRPRPLNFPRP | -0.434
RRIRVRPPRLPRPRPRPVCGPRP | 0.211
RRIRRRPPRLPRPRPRPSHCPRP | -0.041
RRIRSRPPRLPRPRPRPGNKPRP | -0.194
RRIRNRPPRLPRPRPRPMSSPRP | -0.123
RRIRTRPPRLPRPRPRPHYNPRP | -0.75
RRIRVRPPRLPRPRPRPEDPPRP | 0.476
RRIRPRPPRLPRPRPRPQSHPRP | -0.291
RRIRERPPRLPRPRPRPYHSPRP | -0.133
RRIRTRPPRLPRPRPRPEMPPRP | -0.0682
RRIRWRPPRLPRPRPRPCYFPRP | -0.0204
RRIRHRPPRLPRPRPRPPVVPRP | 0.253
RRIRGRPPRLPRPRPRPSLSPRP | 0.576
RRIRNRPPRLPRPRPRPRSVPRP | 0.258
RRIRPRPPRLPRPRPRPAWWPRP | 0.259
RRIRNRPPRLPRPRPRPQDVPRP | -0.0757
RRIRDRPPRLPRPRPRPEICPRP | 0.023
RRIRSRPPRLPRPRPRPPGAPRP | 0.61
RRIRCRPPRLPRPRPRPRWTPRP | 0.236
RRIRFRPPRLPRPRPRPDQYPRP | -0.169
RRIRERPPRLPRPRPRPMSEPRP | 0.0552
RRIRWRPPRLPRPRPRPACSPRP | 0.528
RRIRIRPPRLPRPRPRPLRHPRP | -0.172
RRIRHRPPRLPRPRPRPLCNPRP | -0.337
RRIRLRPPRLPRPRPRPGCHPRP | -0.268

Sequence | shrunken log2 fold change
RRIRRRPPRLPRPRPRPIPDPRP | 0.277
RRIRVRPPRLPRPRPRPPTFPRP | 0.0282
RRIRPRPPRLPRPRPRPGVEPRP | 0.249
RRIRMRPPRLPRPRPRPHGSPRP | 0.0248
RRIRRRPPRLPRPRPRPHQLPRP | -0.225
RRIRVRPPRLPRPRPRPFMPPRP | -0.355
RRIRARPPRLPRPRPRPIDIPRP | 0.0327
RRIRTRPPRLPRPRPRPTSRPRP | 0.141
RRIRYRPPRLPRPRPRPTPPPRP | 0.421
RRIRDRPPRLPRPRPRPPDFPRP | 0.0426
RRIRARPPRLPRPRPRPFYTPRP | -0.685
RRIRWRPPRLPRPRPRPWCAPRP | 0.0379
RRIRVRPPRLPRPRPRPGQMPRP | -0.0386
RRIRKRPPRLPRPRPRPLNFPRP | 0.103
RRIRVRPPRLPRPRPRPVELPRP | 0.104
RRIRYRPPRLPRPRPRPDPNPRP | -0.57
RRIRPRPPRLPRPRPRPHWMPRP | 0.0365
RRIRHRPPRLPRPRPRPDWSPRP | 0.00911
RRIRTRPPRLPRPRPRPMLQPRP | 0.00738
RRIRGRPPRLPRPRPRPYLGPRP | 0.167
RRIRCRPPRLPRPRPRPCSMPRP | -0.0191
RRIRCRPPRLPRPRPRPMWGPRP | -0.214
RRIRARPPRLPRPRPRPCVRPRP | 0.135
RRIRYRPPRLPRPRPRPKWYPRP | -0.884
RRIRNRPPRLPRPRPRPSMTPRP | 0.0898
